Measurements taken from paper PMC10397247.

Experiments:
P8A = molecular target: T1, P8A; assay: two-hybrid library CCNG1;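 note: natural log of median RNA to DNA barcode read ratio; higher means stronger binding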
T1 chain: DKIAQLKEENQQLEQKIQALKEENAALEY

P9A = molecular target: T2, P9A; assay: two-hybrid library CCNG1;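 note: natural log of median RNA to DNA barcode read ratio; higher means stronger binding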
T2 chain: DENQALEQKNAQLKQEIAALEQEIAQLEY

4H3364-bA = molecular target: T3, 4H3364-bA; assay: two-hybrid library CCNG1;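 note: natural log of median RNA to DNA barcode read ratio; higher means stronger binding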
T3 chain: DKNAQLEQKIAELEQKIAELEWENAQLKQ

4H3381-bA = molecular target: T4, 4H3381-bA; assay: two-hybrid library CCNG1;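 note: natural log of median RNA to DNA barcode read ratio; higher means stronger binding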
T4 chain: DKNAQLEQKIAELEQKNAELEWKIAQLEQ

4H349-bA = molecular target: T5, 4H349-bA; assay: two-hybrid library CCNG1;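 note: natural log of median RNA to DNA barcode read ratio; higher means stronger binding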
T5 chain: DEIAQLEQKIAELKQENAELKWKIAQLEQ

4H56-bA = molecular target: T6, 4H56-bA; assay: two-hybrid library CCNG1;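 note: natural log of median RNA to DNA barcode read ratio; higher means stronger binding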
T6 chain: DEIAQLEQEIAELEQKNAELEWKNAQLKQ

4H730-bA = molecular target: T7, 4H730-bA; assay: two-hybrid library CCNG1
T7 chain: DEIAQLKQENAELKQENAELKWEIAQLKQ

4H796-bA = molecular target: T8, 4H796-bA; assay: two-hybrid library CCNG1
T8 chain: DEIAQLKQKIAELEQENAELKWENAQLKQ

4H932-bA = molecular target: T9, 4H932-bA; assay: two-hybrid library CCNG1
T9 chain: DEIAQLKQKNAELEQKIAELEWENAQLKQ

4H949-bA = molecular target: T10, 4H949-bA; assay: two-hybrid library CCNG1
T10 chain: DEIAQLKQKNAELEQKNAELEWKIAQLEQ

4H2758-AA = molecular target: T11, 4H2758-AA; assay: two-hybrid library CCmax
T11 chain: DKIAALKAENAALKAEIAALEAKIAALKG

4H278-AA = molecular target: T12, 4H278-AA; assay: two-hybrid library CCmax; conditions: mean of both orientations
T12 chain: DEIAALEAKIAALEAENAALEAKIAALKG

4H2873-AA = molecular target: T13, 4H2873-AA; assay: two-hybrid library CCmax; conditions: mean of both orientations
T13 chain: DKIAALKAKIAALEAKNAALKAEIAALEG

4H2985-AA = molecular target: T14, 4H2985-AA; assay: two-hybrid library CCmax; conditions: mean of both orientations
T14 chain: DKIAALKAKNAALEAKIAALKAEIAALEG

4H3134-AA = molecular target: T15, 4H3134-AA; assay: two-hybrid library CCmax; conditions: mean of both orientations
T15 chain: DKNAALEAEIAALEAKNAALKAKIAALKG

4H3409-AA = molecular target: T16, 4H3409-AA; assay: two-hybrid library CCmax; conditions: mean of both orientations
T16 chain: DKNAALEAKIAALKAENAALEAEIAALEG

4H3625-AA = molecular target: T17, 4H3625-AA; assay: two-hybrid library CCmax; conditions: mean of both orientations
T17 chain: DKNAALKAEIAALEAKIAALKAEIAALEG

4H390-AA = molecular target: T18, 4H390-AA; assay: two-hybrid library CCmax; conditions: mean of both orientations
T18 chain: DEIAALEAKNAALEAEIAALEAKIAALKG

4H3940-AA = molecular target: T19, 4H3940-AA; assay: two-hybrid library CCmax; conditions: mean of both orientations
T19 chain: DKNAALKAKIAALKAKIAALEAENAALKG

4H510-AA = molecular target: T20, 4H510-AA; assay: two-hybrid library CCmax; conditions: mean of both orientations
T20 chain: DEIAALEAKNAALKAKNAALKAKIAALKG

4H775-AA = molecular target: T21, 4H775-AA; assay: two-hybrid library CCmax; conditions: mean of both orientations
T21 chain: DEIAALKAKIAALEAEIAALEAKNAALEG

4H816-AA = molecular target: T22, 4H816-AA; assay: two-hybrid library CCmax; conditions: mean of both orientations
T22 chain: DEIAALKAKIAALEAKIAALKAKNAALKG

4H87-AA = molecular target: T23, 4H87-AA; assay: two-hybrid library CCmax; conditions: mean of both orientations
T23 chain: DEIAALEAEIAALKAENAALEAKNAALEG

O5-bS = molecular target: T24, O5-bS; assay: two-hybrid library CCNG1
T24 chain: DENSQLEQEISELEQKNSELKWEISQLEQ

O6-bS = molecular target: T25, O6-bS; assay: two-hybrid library CCNG1
T25 chain: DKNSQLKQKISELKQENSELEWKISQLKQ

O7-bS = molecular target: T26, O7-bS; assay: two-hybrid library CCNG1
T26 chain: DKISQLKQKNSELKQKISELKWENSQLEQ

O8-bS = molecular target: T27, O8-bS; assay: two-hybrid library CCNG1
T27 chain: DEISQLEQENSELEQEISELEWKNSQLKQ

O9-bS = molecular target: T28, O9-bS; assay: two-hybrid library CCNG1
T28 chain: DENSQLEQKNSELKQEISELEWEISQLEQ

**Q.** For DKIAQLKEENQQLEQKIQALKEENAALEY [P8A], which interaction score (P8A) is on record?
**A.** -1.27

**Q.** What about the interaction score (P9A) of the same binder?
**A.** -1.56

**Q.** Which interaction score (4H3364-bA) does the source give for DKNAQLEQKIAELEQKIAELEWENAQLKQ [4H3364-bA] here?
**A.** 1.01

**Q.** What about the interaction score (4H3381-bA) of the same binder?
**A.** -0.647

**Q.** What about the interaction score (4H349-bA) of the same binder?
**A.** -1.53

**Q.** And the interaction score (4H56-bA)?
**A.** 0.349

**Q.** What about the interaction score (4H730-bA) of the same binder?
**A.** 0.124

**Q.** And the interaction score (4H796-bA)?
**A.** 0.137

**Q.** What about the interaction score (4H932-bA) of the same binder?
**A.** -0.586

**Q.** And the interaction score (4H949-bA)?
**A.** -1.22

**Q.** What about the interaction score (P8A) of the same binder?
**A.** -0.26

**Q.** How did the interaction score (4H2758-AA) turn out when DKIAALKAENAALKAEIAALEAKIAALKG [4H2758-AA] was run?
**A.** 1.56

**Q.** And the interaction score (4H278-AA)?
**A.** -0.138

**Q.** What about the interaction score (4H2873-AA) of the same binder?
**A.** -0.654

**Q.** What about the interaction score (4H2985-AA) of the same binder?
**A.** 1.59

**Q.** What about the interaction score (4H3134-AA) of the same binder?
**A.** 0.499

**Q.** What about the interaction score (4H3409-AA) of the same binder?
**A.** -0.325

**Q.** And the interaction score (4H3625-AA)?
**A.** -0.393

**Q.** And the interaction score (4H390-AA)?
**A.** 0.895

**Q.** What about the interaction score (4H3940-AA) of the same binder?
**A.** -1.45

**Q.** And the interaction score (4H510-AA)?
**A.** 0.225

**Q.** And the interaction score (4H775-AA)?
**A.** -0.652

**Q.** What about the interaction score (4H816-AA) of the same binder?
**A.** -1.38

**Q.** And the interaction score (4H87-AA)?
**A.** -1.35

**Q.** DENSQLEQEISELEQKNSELKWEISQLEQ [O5-bS] was tested. Which interaction score (O5-bS) did it give?
**A.** -1.98

**Q.** And the interaction score (O6-bS)?
**A.** 2.08

**Q.** And the interaction score (O7-bS)?
**A.** -1.98

**Q.** What about the interaction score (O8-bS) of the same binder?
**A.** -1.34

**Q.** And the interaction score (O9-bS)?
**A.** -0.729
